According to publication PMC2789238:
One block for each substance: values may come before it.

Assays:
[1] = target: cdk2 (cyclin-associated kinase activity in sea urchin cell extracts) (L. pictus (endogenous in eggs and embryos))
[2] = target: ERK1, not dual-phosphorylated (inactive ERK dimer in U0126-inhibited embryos) (L. pictus (endogenous in eggs and embryos)); assay: native gel or EMSA; whole-cell extracts of eggs/embryos at times after fertilization (control, or U0126 15 min before fertilisation); non-denaturing gel to maintain ERK as a dimer; Western blot with anti-dual-phosphorylated ERK or anti-ERK antibodies
[3] = target: dual-phosphorylated ERK1 (fully activated ERK bis-phosphodimer) (L. pictus (endogenous in eggs and embryos)); assay: as above

inhibition of Rb C-terminus phosphorylation in the 4 min whole-cell extract with a mixture of Rb and MBP as substrates, with and without p27^kip1 [1]: 97%
Substance: p27^kip1 recombinant protein (from UniProt P46414 1-197) (natural protein)

stoichiometry N [2]: 2
Substance: ERK1, not dual-phosphorylated (inactive ERK dimer in U0126-inhibited embryos) (enzyme)

stoichiometry N [3]: 2
Substance: dual-phosphorylated ERK1 (fully activated ERK bis-phosphodimer) (enzyme)
